Laboratory results: patent US20240382606A1

Biological target: CD8 co-receptors on CD8+ T cells (OT-1 mouse splenocytes) (mouse) (UniProt P01731)
Test: flow cytometry, noncognate APNs on OT-1 CD8+ splenocytes, in vitro

Chain of UniProt P01731 (P01731 28-247, chain 1 of 2): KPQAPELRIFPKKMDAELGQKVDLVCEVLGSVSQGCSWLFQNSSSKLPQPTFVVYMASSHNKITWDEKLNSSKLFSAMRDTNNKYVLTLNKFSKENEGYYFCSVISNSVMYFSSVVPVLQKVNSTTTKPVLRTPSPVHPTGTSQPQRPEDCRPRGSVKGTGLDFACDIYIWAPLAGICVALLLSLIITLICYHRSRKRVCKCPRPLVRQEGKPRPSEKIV
Chain of UniProt P01731 (P10300 22-213, chain 2 of 2, further chain): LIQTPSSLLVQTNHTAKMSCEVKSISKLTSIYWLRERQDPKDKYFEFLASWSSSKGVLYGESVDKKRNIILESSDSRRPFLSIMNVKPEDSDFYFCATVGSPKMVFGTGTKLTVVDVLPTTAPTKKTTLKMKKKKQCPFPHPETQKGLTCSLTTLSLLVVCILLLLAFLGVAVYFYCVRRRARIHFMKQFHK

NS2/K^b antigen-presenting nanoparticle (APN): NS2 peptide RTFSFQLI on H2-K^b on an mRNA lipid nanoparticle (peptide-MHC)
percent cross-reactivity: 10%
